The target of the assay is Caenorhabditis elegans leucine-rich-repeat-containing GPCR (CeLGR), residues Gln31 to Arg712 (Caenorhabditis elegans) (UniProt G5EG04). In words: MST.

A word on the Kd: it is the free concentration of one partner at which half of the binding sites on the other are occupied at equilibrium, for simple one-to-one binding. Read a low Kd as tighter binding. As for “C. elegans α2/β5 heterodimeric hormone (Ceα2β5) (from UniProt A7DT38 20-125) (complex)”, the Kd amounted to 153 nM.

For the origin of these results see PMC11722252.
